According to patent US20120308570A1, “METHODS FOR TREATING DISEASES” (priority 2009, published 2012):

Key:
[1] = molecular target: T1, full-length iNOS protein (endogenous, from LPS/IFNγ-treated mouse bone marrow-derived macrophages) (mouse, UniProt P29477 1-1144); assay: anti-Flag immunoprecipitation from transgenic BMDM, anti-iNOS re-blot
T1 construct: Not purified: present in macrophage lysates; Detected by Western blot with anti-iNOS antibody; also called NOS2; inducible nitric oxide synthase
T1 sequence: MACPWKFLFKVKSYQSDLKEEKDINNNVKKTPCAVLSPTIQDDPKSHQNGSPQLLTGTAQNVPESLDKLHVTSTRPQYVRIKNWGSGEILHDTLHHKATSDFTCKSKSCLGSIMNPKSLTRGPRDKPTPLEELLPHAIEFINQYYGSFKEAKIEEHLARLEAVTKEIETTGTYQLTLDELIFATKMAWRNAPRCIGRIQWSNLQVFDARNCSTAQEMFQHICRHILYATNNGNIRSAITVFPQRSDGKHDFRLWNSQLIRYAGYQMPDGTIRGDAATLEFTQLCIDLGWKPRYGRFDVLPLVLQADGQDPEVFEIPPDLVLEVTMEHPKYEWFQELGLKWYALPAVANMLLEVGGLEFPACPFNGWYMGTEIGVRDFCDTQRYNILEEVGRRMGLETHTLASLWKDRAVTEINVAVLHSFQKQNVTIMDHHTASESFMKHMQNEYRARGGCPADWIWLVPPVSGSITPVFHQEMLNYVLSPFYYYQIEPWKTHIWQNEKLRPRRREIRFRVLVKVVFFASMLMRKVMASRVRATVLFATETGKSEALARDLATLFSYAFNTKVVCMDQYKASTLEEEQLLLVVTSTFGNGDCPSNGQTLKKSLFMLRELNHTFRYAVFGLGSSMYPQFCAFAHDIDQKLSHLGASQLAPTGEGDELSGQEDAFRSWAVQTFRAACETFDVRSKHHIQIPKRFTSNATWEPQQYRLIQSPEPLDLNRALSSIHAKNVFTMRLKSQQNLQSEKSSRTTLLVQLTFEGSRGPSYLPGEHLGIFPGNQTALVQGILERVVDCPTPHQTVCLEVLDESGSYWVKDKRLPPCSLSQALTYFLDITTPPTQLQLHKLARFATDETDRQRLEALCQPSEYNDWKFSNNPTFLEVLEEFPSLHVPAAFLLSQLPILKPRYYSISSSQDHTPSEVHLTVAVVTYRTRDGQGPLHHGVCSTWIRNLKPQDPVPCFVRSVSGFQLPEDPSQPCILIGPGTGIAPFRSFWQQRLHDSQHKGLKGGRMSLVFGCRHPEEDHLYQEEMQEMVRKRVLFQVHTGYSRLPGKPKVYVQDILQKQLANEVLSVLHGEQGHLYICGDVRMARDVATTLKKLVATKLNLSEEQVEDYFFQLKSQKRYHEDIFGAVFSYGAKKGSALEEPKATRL
Protocol: Cells were incubated with IFNγ and LPS as described, and lysed in KALB lysis buffer (Nicholson et al., 1995) containing protease inhibitors (Complete Cocktail tablets, Roche), 1 mM phenylmethylsulphonyl fluoride, 1 mM Na₃VO₄ and 1 mM NaF. Proteins were immunoprecipitated using anti-Flag antibody conjugated to Sepharose (M2; EASTMAN KODAK). Proteins were separated by sodium dodecyl sulphatepolyacrylamide gel electrophoresis (SDS-PAGE) under reducing conditions and electrophoretically transferred to Biotrace PVDF membranes (Pall Corp. Ann Arbor, Mich.). Membranes were blocked overnight in 10% w/v skim milk and incubated with primary antibody for 2 h. Antibody binding was visualized with either peroxidase-conjugated goat anti-rat immunoglobulin (Southern Biotech) or peroxidase-conjugated sheep anti-rabbit immunoglobulin (Chemicon, Melbourne, Australia), and the enhanced chemiluminescence (ECL) system (Amersham, Little Chalfont, Buckinghamshire, UK). To re-blot, the membrane was first stripped of antibodies in 0.1 M glycine, pH 2.9.
As genetic deletion of SSB-2 appeared to result in elevation of iNOS levels, it was tested whether artificially increasing SSB levels could correspondingly down-regulate iNOS expression. BMDM were generated from mice expressing either a Flag-tagged Ssb-1 or Ssb-2 transgene under a constitutive promoter (Ssb-1^{T/+}, Ssb-2^{T/+}) and from wild-type littermate control mice. […] Macrophage expression of the SSB transgenes was confirmed by anti-FLAG immunoprecipitation and Western blot (FIGS. 9C and 10C, top panels).

[2] = molecular target: T1, full-length iNOS protein (endogenous, …); assay: anti-Flag co-immunoprecipitation, anti-iNOS Western blot
Text: FIG. 6. Interaction between iNOS and SSB-1, -2, and -4 and SSB-2 residues affecting 10 iNOS binding. (A) iNOS interacts preferentially with SSB-2 and SSB-4. 293T cells were transiently transfected with vector alone or cDNA encoding either Flag-tagged SSB-1, SSB-2, SSB-3 or SSB-4. Cells were lysed, and mixed with BMDM lysates from cells induced to express iNOS. Flag-tagged proteins were immunoprecipitated using anti-Flag antibodies (M2-beads) and separated by SDSPAGE. Co-immunoprecipitation of iNOS was detected by Western blot with anti-iNOS antibodies (upper panel). Membranes were stripped and reprobed with rat anti-Flag antibodies (middle panel). Comparative expression of Flag-tagged proteins in 293T lysates is shown by Western blot (lower panel). (B) SSB-2 residues affecting iNOS binding. Residues in the SSB-2 SPRY domain were mutated to Ala or Phe (for Y120) based on SSB-2 structure and sequence conservation. 293T cells 20 were transiently transfected with cDNA encoding Flag-tagged wild-type or mutant SSB-2. Cells were lysed, and mixed with BMDM lysates from cells induced to express iNOS. Flag-tagged proteins were immunoprecipitated using anti-Flag antibodies and separated by SDS-PAGE. Coimmunoprecipitation of iNOS was detected by Western blot with anti-iNOS antibodies.

[3] = molecular target: T2, SSB-2ΔSB (recombinant murine SSB-2 SPRY domain, residues 12-224) (mouse, UniProt O88838 12-224); assay: ITC, 25 C, peptide injected into SSB-2ΔSB
T2 construct: 226 residues in total; expressed as GST fusion in E. coli, GST cleaved off with thrombin; 15N-labelled for NMR; coupled to NHS-Sepharose for pull-downs; also called SPSB2
T2 sequence: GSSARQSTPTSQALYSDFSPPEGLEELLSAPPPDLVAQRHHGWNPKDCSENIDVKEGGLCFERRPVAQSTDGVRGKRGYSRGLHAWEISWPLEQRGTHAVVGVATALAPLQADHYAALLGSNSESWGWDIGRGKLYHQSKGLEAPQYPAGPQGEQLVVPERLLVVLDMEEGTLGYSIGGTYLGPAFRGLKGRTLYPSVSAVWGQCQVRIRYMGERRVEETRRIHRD
Protocol: FIG. 3. Typical ITC raw data and titration curves for SSB-2 and iNOS peptide interactions. Titration curves were fitted using the “One Set of Sites” model in MicroCal Origin.
Wild-type and mutant iNOS peptides (Table 2), corresponding to Lys19-Thr31 of mouse iNOS, were synthesized by GL Biochem (Shanghai) Ltd. These peptides were N-terminal acetylated and C-terminal amidated. All ITC measurements were carried out at 25° C. using a Microcal omega VP-ITC (Microcal Inc., Northampton, Mass.). SSB-2ΔSB was dialysed against buffer (100 mM TrisHCl, 150 mM NaCl, pH 8.0), and wild-type and mutant iNOS N-terminal peptides were prepared in the same buffer from 5 mM stocks. Solutions of 5 to 10 μM SSB-2ΔSB in the cell were titrated by injection of a total of 290 μL of 50-200 μM of iNOS peptides. Data analysis was performed using the evaluation software, MicroCal Origin version 5.0. All curves were fitted using the nonlinear least-squares fitter and the “One Set of Sites” model.

B1: Flag-tagged SSB-1 transgene product (a.a. 2-274), in BMDM of Ssb-1 T/+ mice (other)
chain: DYKDDDDKGQKVTGGIKTVDMRDPTYRPLKQELQGLDYCKPTRLDLLLDMPPVSYDVQLLHSWNNNDRSLNVFVKEDDKLIFHRHPVAQSTDAIRGKVGYTRGLHVWQITWAMRQRGTHAVVGVATADAPLHSVGYTTLVGNNHESWGWDLGRNRLYHDGKNQPSKTYPAFLEPDETFIVPDSFLVALDMDDGTLSFIVDGQYMGVAFRGLKGKKLYPVVSAVWGHCEIRMRYLNGLDPEPLPLMDLCRRSVRLALGKERLGAIPALPLPASLKAYLLYQ
notes: The printed end of the range may exceed the entry's length; also called full-length SSB-1
[1]
  binding result: binds

B2: Flag-tagged SSB-2ΔSB transgene product (a.a. 2-224, without the SOCS box), in BMDM of Ssb-2ΔSB T/+ mice (other)
chain: DYKDDDDKGQTALARGSSSTPTSQALYSDFSPPEGLEELLSAPPPDLVAQRHHGWNPKDCSENIDVKEGGLCFERRPVAQSTDGVRGKRGYSRGLHAWEISWPLEQRGTHAVVGVATALAPLQADHYAALLGSNSESWGWDIGRGKLYHQSKGLEAPQYPAGPQGEQLVVPERLLVVLDMEEGTLGYSIGGTYLGPAFRGLKGRTLYPSVSAVWGQCQVRIRYMGERRVEE
notes: also called SOCS box-deleted SSB-2
[1]
  binding result: binds

B3: Flag-tagged SSB-1ΔSB transgene product (a.a. 2-233, without the SOCS box), in BMDM of Ssb-1ΔSB T/+ mice (other)
chain: DYKDDDDKGQKVTGGIKTVDMRDPTYRPLKQELQGLDYCKPTRLDLLLDMPPVSYDVQLLHSWNNNDRSLNVFVKEDDKLIFHRHPVAQSTDAIRGKVGYTRGLHVWQITWAMRQRGTHAVVGVATADAPLHSVGYTTLVGNNHESWGWDLGRNRLYHDGKNQPSKTYPAFLEPDETFIVPDSFLVALDMDDGTLSFIVDGQYMGVAFRGLKGKKLYPVVSAVWGHCEIRMRYLNGLDPE
notes: also called SOCS box-deleted SSB-1
[1]
  binding result: binds

B4: Flag-tagged SSB-2 mutant R100/G101 to alanine (other)
chain: DYKDDDDKMGQTALARGSSSTPTSQALYSDFSPPEGLEELLSAPPPDLVAQRHHGWNPKDCSENIDVKEGGLCFERRPVAQSTDGVRGKRGYSRGLHAWEISWPLEQAATHAVVGVATALAPLQADHYAALLGSNSESWGWDIGRGKLYHQSKGLEAPQYPAGPQGEQLVVPERLLVVLDMEEGTLGYSIGGTYLGPAFRGLKGRTLYPSVSAVWGQCQVRIRYMGERRVEEPQSLLHLSRLCVRHALGDTRLGQISTLPLPPAMKRYLLYK
[2]
  binding result: no binding

B5: Flag-tagged SSB-2 mutant Y120 to alanine (other)
chain: DYKDDDDKMGQTALARGSSSTPTSQALYSDFSPPEGLEELLSAPPPDLVAQRHHGWNPKDCSENIDVKEGGLCFERRPVAQSTDGVRGKRGYSRGLHAWEISWPLEQRGTHAVVGVATALAPLQADHAAALLGSNSESWGWDIGRGKLYHQSKGLEAPQYPAGPQGEQLVVPERLLVVLDMEEGTLGYSIGGTYLGPAFRGLKGRTLYPSVSAVWGQCQVRIRYMGERRVEEPQSLLHLSRLCVRHALGDTRLGQISTLPLPPAMKRYLLYK
[2]
  binding result: no binding

B6: Flag-tagged SSB-2 mutant V206 to alanine (other)
chain: DYKDDDDKMGQTALARGSSSTPTSQALYSDFSPPEGLEELLSAPPPDLVAQRHHGWNPKDCSENIDVKEGGLCFERRPVAQSTDGVRGKRGYSRGLHAWEISWPLEQRGTHAVVGVATALAPLQADHYAALLGSNSESWGWDIGRGKLYHQSKGLEAPQYPAGPQGEQLVVPERLLVVLDMEEGTLGYSIGGTYLGPAFRGLKGRTLYPSVSAAWGQCQVRIRYMGERRVEEPQSLLHLSRLCVRHALGDTRLGQISTLPLPPAMKRYLLYK
[2]
  binding result: no binding

B7: Flag-tagged SSB-2 transgene product (a.a. 3-265), in BMDM of Ssb-2 T/+ mice (other)
chain: DYKDDDDKQTALARGSSSTPTSQALYSDFSPPEGLEELLSAPPPDLVAQRHHGWNPKDCSENIDVKEGGLCFERRPVAQSTDGVRGKRGYSRGLHAWEISWPLEQRGTHAVVGVATALAPLQADHYAALLGSNSESWGWDIGRGKLYHQSKGLEAPQYPAGPQGEQLVVPERLLVVLDMEEGTLGYSIGGTYLGPAFRGLKGRTLYPSVSAVWGQCQVRIRYMGERRVEEPQSLLHLSRLCVRHALGDTRLGQISTLPLPPAMKRYLLYK
notes: The printed end of the range may exceed the entry's length; also called full-length SSB-2
[1]
  binding result: binds

## Ac-KEAKDINNNVKKT-NH2 [iNOS N-terminal peptide II, Ac-KEAKDINNNVKKT-NH2]
[3]
  Kd: 14 nM

## Ac-KEEKDIANNVKKT-NH2 [iNOS N-terminal peptide VII, Ac-KEEKDIANNVKKT-NH2]
[3]
  Kd: 17200 nM

## Ac-KEAADINNNVKKT-NH2 [iNOS N-terminal peptide IV, Ac-KEAADINNNVKKT-NH2]
[3]
  Kd: 65.4 nM

## Ac-KEEADINNNVKKT-NH2 [iNOS N-terminal peptide III, Ac-KEEADINNNVKKT-NH2]
[3]
  Kd: 127 nM

## Ac-KEEKDIQNNVKKT-NH2 [iNOS N-terminal peptide VIII, Ac-KEEKDIQNNVKKT-NH2]
[3]
  Kd: 40500 nM

## Ac-KEEKDANNNVKKT-NH2 [iNOS N-terminal peptide VI, Ac-KEEKDANNNVKKT-NH2]
[3]
  Kd: 23.5 nM

## Ac-KEEKAINNNVKKT-NH2 [iNOS N-terminal peptide V, Ac-KEEKAINNNVKKT-NH2]
[3]
  Kd: 21600 nM

## Ac-KEEKDINNNAKAT-NH2 [iNOS N-terminal peptide XIV, Ac-KEEKDINNNAKAT-NH2]
[3]
  Kd: 180 nM

## Ac-KEEKDINANVKKT-NH2 [iNOS N-terminal peptide IX, Ac-KEEKDINANVKKT-NH2]
[3]
  Kd: 826 nM
